Assay results from patent publication US20110225664, “MEGANUCLEASE VARIANTS CLEAVING A DNA TARGET SEQUENCE FROM A GLUTAMINE SYNTHETASE GENE AND USES THEREOF” (Cellectis, published 2011).
Where a chain is given by its changes, count along the chain named.

Legend:
Assay in all cases: cell_activity; CHO extrachromosomal SSA assay
[1] = target: T1, I-CreI heterodimer Mt 3B + Mt 4A (Chlamydomonas reinhardtii (engineered), UniProt P05725;P05725 SEQ:1-167,SEQ:1-167)
T1 chain 1: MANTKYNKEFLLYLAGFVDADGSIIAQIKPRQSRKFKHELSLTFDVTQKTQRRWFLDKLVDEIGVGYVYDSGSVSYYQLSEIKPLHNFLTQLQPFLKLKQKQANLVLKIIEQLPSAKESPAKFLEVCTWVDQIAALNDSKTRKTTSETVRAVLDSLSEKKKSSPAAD
T1 chain 2: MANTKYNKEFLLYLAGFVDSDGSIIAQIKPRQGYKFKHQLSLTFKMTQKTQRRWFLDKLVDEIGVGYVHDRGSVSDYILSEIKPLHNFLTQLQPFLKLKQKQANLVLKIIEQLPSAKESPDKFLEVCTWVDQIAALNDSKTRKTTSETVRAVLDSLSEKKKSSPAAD
Experimental: (§1) CHO cells were transfected with Polyfect® transfection reagent according to the supplier's protocol (QIAGEN). 72 hours after transfection, the level of Beta galactosidase expression for each transfection was quantified using the Beta-Glo® Assay System (Promega). The Beta-Glo Assay contains a luciferin-galactoside substrate (6-O-β-galactopyranosylluciferin) that can be cleaved by β-galactosidase to form luciferin that is then utilized in a firefly luciferase reaction to generate light. For each transfection, approximately 100,000 cells in 100 μl of medium were combined with an equal volume of Beta-Glo lysis/revelation buffer as described by the manufacturer (Promega). After 30 minutes of incubation at room temperature, signal was measured with a luminometer (Perkin Elmer Victor multilabel plate reader).
(§2) Several variants described in examples 3, 5, 6, 7 and 8 were first recloned in pCLS1768 (FIG. 16). Then, in order to identify the heterodimer displaying the maximal cleavage activity with the GSCHO1 target in CHO cells, I-CreI variants cleaving the GSCHO1.3 or GSCHO1.4 targets (described in examples 3, 5, 6, 7 and 8) were tested together as heterodimers against the GSCHO1 target in the CHO extrachromosomal assay.

[2] = target: T2, I-CreI heterodimer Mt 3B + Mt 4C (Chlamydomonas reinhardtii (engineered), UniProt P05725;P05725 SEQ:1-167,SEQ:1-167)
T2 chain 1: T1 chain 1
T2 chain 2: T1 chain 2 with S20G, G33S, Y34R, K45Q, M46V, H69A, I78R
Experimental: as §1, §2

[3] = target: T3, I-CreI heterodimer Mt 3A + Mt 4A (Chlamydomonas reinhardtii (engineered), UniProt P05725;P05725 SEQ:1-167,SEQ:1-167)
T3 chain 1: T1 chain 1 with A20G, Y67H, A121D, I133V
T3 chain 2: T1 chain 2
Experimental: as §1, §2

[4] = target: T4, I-CreI heterodimer Mt 3A + Mt 4D (Chlamydomonas reinhardtii (engineered), UniProt P05725;P05725 SEQ:1-167,SEQ:1-167)
T4 chain 1: T1 chain 1 with A20G, Y67H, A121D, I133V
T4 chain 2: T1 chain 2 with S20G, K45R, M46V
Experimental: as §1, §2

[5] = target: T5, I-CreI heterodimer Mt 3C + Mt 4D (Chlamydomonas reinhardtii (engineered), UniProt P05725;P05725 SEQ:1-167,SEQ:1-167)
T5 chain 1: T1 chain 1 with A20S, K58E, S119T, A121D, I133V
T5 chain 2: T1 chain 2 with S20G, K45R, M46V
Experimental: as §1, §2

[6] = target: T6, I-CreI heterodimer Mt 3A + Mt 4C (Chlamydomonas reinhardtii (engineered), UniProt P05725;P05725 SEQ:1-167,SEQ:1-167)
T6 chain 1: T1 chain 1 with A20G, Y67H, A121D, I133V
T6 chain 2: T1 chain 2 with S20G, G33S, Y34R, K45Q, M46V, H69A, I78R
Experimental: as §1, §2

[7] = target: T7, I-CreI heterodimer Mt 3C + Mt 4B (Chlamydomonas reinhardtii (engineered), UniProt P05725;P05725 SEQ:1-167,SEQ:1-167)
T7 chain 1: T1 chain 1 with A20S, K58E, S119T, A121D, I133V
T7 chain 2: T1 chain 2 with S20G, K45Q, M46V, H69A, I78R, P120L
Experimental: as §1, §2

[8] = target: T8, I-CreI heterodimer Mt 3B + Mt 4D (Chlamydomonas reinhardtii (engineered), UniProt P05725;P05725 SEQ:1-167,SEQ:1-167)
T8 chain 1: T1 chain 1
T8 chain 2: T1 chain 2 with S20G, K45R, M46V
Experimental: as §1, §2

[9] = target: T9, I-CreI heterodimer Mt 3A + Mt 4B (Chlamydomonas reinhardtii (engineered), UniProt P05725;P05725 SEQ:1-167,SEQ:1-167)
T9 chain 1: T1 chain 1 with A20G, Y67H, A121D, I133V
T9 chain 2: T1 chain 2 with S20G, K45Q, M46V, H69A, I78R, P120L
Experimental: as §1, §2

[10] = target: T10, I-CreI heterodimer Mt 3B + Mt 4B (Chlamydomonas reinhardtii (engineered), UniProt P05725;P05725 SEQ:1-167,SEQ:1-167)
T10 chain 1: T1 chain 1
T10 chain 2: T1 chain 2 with S20G, K45Q, M46V, H69A, I78R, P120L
Experimental: as §1, §2

[11] = target: T11, I-CreI heterodimer Mt 3C + Mt 4C (Chlamydomonas reinhardtii (engineered), UniProt P05725;P05725 SEQ:1-167,SEQ:1-167)
T11 chain 1: T1 chain 1 with A20S, K58E, S119T, A121D, I133V
T11 chain 2: T1 chain 2 with S20G, G33S, Y34R, K45Q, M46V, H69A, I78R
Experimental: as §1, §2

B1: GSCHO1 (dsDNA)
DNA 1: TGGCATACAAGTTTCTGCCCCAGGGTGAGAAAGTCCAACAATCGTCTGTCA
DNA 2: TGACAGACGATTGTTGGACTTTCTCACCCTGGGGCAGAAACTTGTATGCCA
[1]
  activity: 500000 luminescence units
[2]
  activity: 3.1e+06 luminescence units
[3]
  activity: 2.8e+06 luminescence units
[4]
  activity: 2.5e+06 luminescence units
[5]
  activity: 2.4e+06 luminescence units
[6]
  activity: 2e+06 luminescence units
[7]
  activity: 2.8e+06 luminescence units
[8]
  activity: 3.1e+06 luminescence units
[9]
  activity: 2.3e+06 luminescence units
[10]
  activity: 3.1e+06 luminescence units
[11]
  activity: 2.9e+06 luminescence units
